Test [1] has as its target HveA on CHO-HveA cells (UniProt Q92956). In words: cell-based or functional assay.
Test [2] concerns the target HveC on CHO-HveC cells (UniProt Q15223). In words: cell-based or functional assay.

HveC on CHO-HveC cells, sequence (Q15223 31-517 limits assumed): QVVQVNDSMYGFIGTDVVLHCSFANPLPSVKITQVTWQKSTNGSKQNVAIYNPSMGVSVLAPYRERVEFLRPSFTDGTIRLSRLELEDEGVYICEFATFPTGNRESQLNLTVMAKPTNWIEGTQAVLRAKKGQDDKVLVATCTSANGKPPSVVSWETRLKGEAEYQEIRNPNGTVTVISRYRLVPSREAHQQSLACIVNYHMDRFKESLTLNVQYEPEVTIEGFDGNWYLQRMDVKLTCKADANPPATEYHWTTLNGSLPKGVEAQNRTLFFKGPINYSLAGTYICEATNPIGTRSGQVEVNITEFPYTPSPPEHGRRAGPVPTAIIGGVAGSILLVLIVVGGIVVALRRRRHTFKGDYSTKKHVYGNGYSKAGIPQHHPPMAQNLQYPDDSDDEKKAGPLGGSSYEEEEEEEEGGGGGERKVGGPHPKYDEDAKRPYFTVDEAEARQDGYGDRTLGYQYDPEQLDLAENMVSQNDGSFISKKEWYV
HveA on CHO-HveA cells, sequence (Q92956 39-283 limits assumed): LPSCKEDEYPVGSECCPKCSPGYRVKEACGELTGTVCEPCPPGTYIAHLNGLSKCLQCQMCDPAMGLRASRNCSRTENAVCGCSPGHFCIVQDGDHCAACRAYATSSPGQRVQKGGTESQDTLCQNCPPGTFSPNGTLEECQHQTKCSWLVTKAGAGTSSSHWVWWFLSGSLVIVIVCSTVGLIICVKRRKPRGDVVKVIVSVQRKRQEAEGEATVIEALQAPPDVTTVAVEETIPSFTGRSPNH

The substance gD A7H (ligand) came in with a % Complementation, CHO-HveA in test [1] of 80%. The % Complementation, CHO-HveC in test [2] is 100%.

The substance gD A7L (ligand) registered a % Complementation, CHO-HveA in test [1] of 0%. In test [2], the % Complementation, CHO-HveC was determined as 100%.

In turn, gD A7R (ligand) gave a % Complementation, CHO-HveA in test [1] of 0%. The same substance displayed a % Complementation, CHO-HveC in test [2] of 98%.

Consider gD D6A (ligand), for which the % Complementation, CHO-HveA in test [1] was 0%. Moreover, the % Complementation, CHO-HveC in test [2] was 99%.

The substance gD D6L (ligand) yielded a % Complementation, CHO-HveA in test [1] of 0%. The substance also displayed a % Complementation, CHO-HveC in test [2] of 98%.

On to “gD D26H (from UniProt A1Z0Q5 26-394) (ligand)”, for which the % Complementation, CHO-HveA in test [1] came out at 10%. In test [2], the % Complementation, CHO-HveC was 11%.

For gD D26S (ligand), in test [1], the % Complementation, CHO-HveA amounted to 20%. In test [2], the % Complementation, CHO-HveC stood at 7%.

gD D26V (ligand) yielded a % Complementation, CHO-HveA in test [1] of 0%. In test [2], the % Complementation, CHO-HveC was 26%.

Take “gD D30H (from UniProt A1Z0Q5 26-394) (ligand)”: in test [1], the % Complementation, CHO-HveA is 0%. The % Complementation, CHO-HveC in test [2] came out at 6%.

Regarding gD D30I (ligand), the % Complementation, CHO-HveA in test [1] stood at 0%. In test [2], this substance showed a % Complementation, CHO-HveC of 4%.

For the substance gD D30V (ligand), the % Complementation, CHO-HveA in test [1] is 0%. Besides, the % Complementation, CHO-HveC in test [2] turned out to be 8%.

Turning to “gD G33L (from UniProt A1Z0Q5 26-394) (ligand)”, the % Complementation, CHO-HveA in test [1] stood at 9%. Further, in test [2], the % Complementation, CHO-HveC is 79%.

For the substance gD H39Q (ligand), in test [1], the % Complementation, CHO-HveA turned out to be 50%. Further, the % Complementation, CHO-HveC in test [2] came to 100%.

gD H39V (ligand): the % Complementation, CHO-HveA in test [1] was 75%. In test [2], the % Complementation, CHO-HveC turned out to be 66%.

For gD I40A (ligand), in test [1], the % Complementation, CHO-HveA came out at 0%. The % Complementation, CHO-HveC in test [2] is 0%.

“gD I40N (from UniProt A1Z0Q5 26-394) (ligand)” yielded a % Complementation, CHO-HveA in test [1] of 0%. Also, the % Complementation, CHO-HveC in test [2] amounted to 0%.

The substance gD K1D (ligand) displayed a % Complementation, CHO-HveA in test [1] of 100%. For the same substance, the % Complementation, CHO-HveC in test [2] is 100%.

Take gD L9A (ligand): in test [1], the % Complementation, CHO-HveA came to 0%. Further, in test [2], the % Complementation, CHO-HveC is 100%.

gD L9P (ligand) returned a % Complementation, CHO-HveA in test [1] of 0%. In addition, the % Complementation, CHO-HveC in test [2] amounted to 100%.

Take gD L9R (ligand): in test [1], the % Complementation, CHO-HveA was found to be 0%. In test [2], this substance registered a % Complementation, CHO-HveC of 97%.

Substance “gD L25D (from UniProt A1Z0Q5 26-394) (ligand)” showed a % Complementation, CHO-HveA in test [1] of 0%. Besides, in test [2], the % Complementation, CHO-HveC is 14%.

In test [1], “gD L25H (from UniProt A1Z0Q5 26-394) (ligand)” had a % Complementation, CHO-HveA of 0%. Further, the % Complementation, CHO-HveC in test [2] is 12%.

Turning to “gD L25I (from UniProt A1Z0Q5 26-394) (ligand)”, in test [1], the % Complementation, CHO-HveA was 0%. The substance further returned a % Complementation, CHO-HveC in test [2] of 5%.

“gD L25T (from UniProt A1Z0Q5 26-394) (ligand)” gave a % Complementation, CHO-HveA in test [1] of 0%. The % Complementation, CHO-HveC in test [2] amounted to 3%.

As to gD L28C (ligand), in test [1], the % Complementation, CHO-HveA turned out to be 0%. The same substance yielded a % Complementation, CHO-HveC in test [2] of 100%.

Consider gD L28F (ligand), for which, in test [1], the % Complementation, CHO-HveA was found to be 0%. In test [2], this substance showed a % Complementation, CHO-HveC of 41%.

gD L28G (ligand) showed a % Complementation, CHO-HveA in test [1] of 0%. This substance came in with a % Complementation, CHO-HveC in test [2] of 100%.

Regarding gD L28P (ligand), the % Complementation, CHO-HveA in test [1] worked out at 0%. In test [2], the % Complementation, CHO-HveC is 69%.

In turn, gD L28S (ligand) returned a % Complementation, CHO-HveA in test [1] of 0%. The % Complementation, CHO-HveC in test [2] came to 83%.

In turn, gD L44C (ligand) registered a % Complementation, CHO-HveA in test [1] of 69%. For the same substance, in test [2], the % Complementation, CHO-HveC was 83%.

gD L44G (ligand) yielded a % Complementation, CHO-HveA in test [1] of 0%. The substance further displayed a % Complementation, CHO-HveC in test [2] of 8%.

Consider gD L44P (ligand), for which, in test [1], the % Complementation, CHO-HveA stood at 53%. The substance further yielded a % Complementation, CHO-HveC in test [2] of 71%.

Take “gD P31G (from UniProt A1Z0Q5 26-394) (ligand)”: the % Complementation, CHO-HveA in test [1] turned out to be 0%. In addition, the % Complementation, CHO-HveC in test [2] is 100%.

In test [1], “gD P32H (from UniProt A1Z0Q5 26-394) (ligand)” came in with a % Complementation, CHO-HveA of 6%. The % Complementation, CHO-HveC in test [2] amounted to 100%.

In turn, gD Q27G (ligand) displayed a % Complementation, CHO-HveA in test [1] of 0%. The substance further yielded a % Complementation, CHO-HveC in test [2] of 0%.

The substance gD Q27H (ligand) showed a % Complementation, CHO-HveA in test [1] of 0%. This substance also had a % Complementation, CHO-HveC in test [2] of 14%.

Regarding gD Q27P (rid1) (ligand), in test [1], the % Complementation, CHO-HveA is 0%. Also, the % Complementation, CHO-HveC in test [2] is 83%.

As for gD Q27S (ligand), the % Complementation, CHO-HveA in test [1] was 0%. The substance also displayed a % Complementation, CHO-HveC in test [2] of 9%.

As for gD Q27T (ligand), the % Complementation, CHO-HveA in test [1] came to 0%. Also, in test [2], the % Complementation, CHO-HveC is 0%.

gD Q41P (ligand): the % Complementation, CHO-HveA in test [1] stood at 0%. The substance further yielded a % Complementation, CHO-HveC in test [2] of 18%.

“gD R36A (from UniProt A1Z0Q5 26-394) (ligand)” yielded a % Complementation, CHO-HveA in test [1] of 0%. Further, the % Complementation, CHO-HveC in test [2] amounted to 0%.

“gD R36D (from UniProt A1Z0Q5 26-394) (ligand)” had a % Complementation, CHO-HveA in test [1] of 0%. For the same substance, the % Complementation, CHO-HveC in test [2] was 0%.

Consider “gD R36I (from UniProt A1Z0Q5 26-394) (ligand)”, for which the % Complementation, CHO-HveA in test [1] is 0%. The substance further displayed a % Complementation, CHO-HveC in test [2] of 0%.

Regarding gD S8A (ligand), the % Complementation, CHO-HveA in test [1] was found to be 40%. Further, the % Complementation, CHO-HveC in test [2] worked out at 100%.

With gD S8L (ligand), the % Complementation, CHO-HveA in test [1] was found to be 0%. In test [2], this substance showed a % Complementation, CHO-HveC of 99%.

In the case of gD T29G (ligand), in test [1], the % Complementation, CHO-HveA worked out at 0%. In test [2], this substance had a % Complementation, CHO-HveC of 100%.

gD T29Y (ligand) had a % Complementation, CHO-HveA in test [1] of 0%. In test [2], this substance yielded a % Complementation, CHO-HveC of 100%.

Substance gD^-R (gD A5I) (ligand) registered a % Complementation, CHO-HveA in test [1] of 85%. In addition, the % Complementation, CHO-HveC in test [2] stood at 100%.

For gDΔ2-5 (ligand), the % Complementation, CHO-HveA in test [1] is 0%. In addition, in test [2], the % Complementation, CHO-HveC amounted to 95%.

Turning to gDΔ6-9 (ligand), the % Complementation, CHO-HveA in test [1] worked out at 0%. Also, in test [2], the % Complementation, CHO-HveC turned out to be 100%.

In the case of gDΔ6-24:GSK (ligand), the % Complementation, CHO-HveA in test [1] is 0%. The substance also returned a % Complementation, CHO-HveC in test [2] of 19%.

Regarding gDΔ10-16 (ligand), the % Complementation, CHO-HveA in test [1] stood at 0%. This substance showed a % Complementation, CHO-HveC in test [2] of 100%.

Consider gDΔ17-21 (ligand), for which the % Complementation, CHO-HveA in test [1] was found to be 0%. The % Complementation, CHO-HveC in test [2] is 100%.

For gDΔ21-24 (ligand), in test [1], the % Complementation, CHO-HveA was 0%. The same substance showed a % Complementation, CHO-HveC in test [2] of 100%.

Substance “wild-type gD (HSV-1 strain KOS) (ligand)” came in with a % Complementation, CHO-HveA in test [1] of 100%. This substance also showed a % Complementation, CHO-HveC in test [2] of 100%.

These data come from patent US20020090382A1, “Antiviral compounds and methods” (University of Pittsburgh of the Commonwealth System of …, priority 2000, published 2002).
